Measured values taken from publication PMC12720779.

Tests used:
T2Q A34F variant of GB1 [1] = assay: NMR titration; 19F NMR of 3-fluorotyrosine-labelled A34F, serial dilution 500 to 15.6 uM, Y33 monomer and dimer peak integrals; dimer to monomers; 20 mM phosphate pH 7.0, 10% D2O, 298 K; buffer alone
T2Q A34F variant of GB1 [2] = assay: NMR titration; 19F NMR of 3-fluorotyrosine-labelled A34F, serial dilution 500 to 15.6 uM; dimer to monomers; 20 mM phosphate pH 7.0, 10% D2O, 298 K; with 100 g/L mucin (porcine stomach) as crowder
T2Q A34F variant of GB1 [3] = assay: NMR titration; 19F NMR of 3-fluorotyrosine-labelled A34F, serial dilution 500 to 15.6 uM; dimer to monomers; 20 mM phosphate pH 7.0, 10% D2O, 298 K; with ficoll (70 kDa) as crowder
T2Q A34F variant of GB1 [4] = assay: NMR titration; 19F NMR of 3-fluorotyrosine-labelled A34F, serial dilution 500 to 15.6 uM; dimer to monomers; 20 mM phosphate pH 7.0, 10% D2O, 298 K; with 100 g/L heparin (15 kDa) as crowder
T2Q A34F variant of GB1 [5] = assay: NMR titration; 19F NMR of 3-fluorotyrosine-labelled A34F, serial dilution 500 to 15.6 uM; dimer to monomers; 20 mM phosphate pH 7.0, 10% D2O, 298 K; with hyaluronic acid (50 kDa) as crowder

- Kd (T2Q A34F variant of GB1 [1]): 57 µM
- stoichiometry N (T2Q A34F variant of GB1 [1]): 2
- Kd (T2Q A34F variant of GB1 [2]): 26 µM
- Kd (T2Q A34F variant of GB1 [3]): 42 µM
- Kd (T2Q A34F variant of GB1 [4]): 12 µM
- Kd (T2Q A34F variant of GB1 [5]): 8 µM
Substance: T2Q A34F variant of GB1 (domain or fragment)
